Residue numbers refer to the chain shown, from its start.
Tests used:
[1] = molecular target: T1, biotinylated human Siglec-15 protein (Acrobiosystems, Cat. No. SG5-H82E9) (human, UniProt Q6ZMC9 20-263, biotinylated); experiment: flow cytometry of yeast-displayed Fab, 1 nM HS-15 Biotin 30 min, 2 h wash
T1 construct: Bought reagent; also called HS-15 Biotin; human S-15 Biotin
T1 sequence (looked up): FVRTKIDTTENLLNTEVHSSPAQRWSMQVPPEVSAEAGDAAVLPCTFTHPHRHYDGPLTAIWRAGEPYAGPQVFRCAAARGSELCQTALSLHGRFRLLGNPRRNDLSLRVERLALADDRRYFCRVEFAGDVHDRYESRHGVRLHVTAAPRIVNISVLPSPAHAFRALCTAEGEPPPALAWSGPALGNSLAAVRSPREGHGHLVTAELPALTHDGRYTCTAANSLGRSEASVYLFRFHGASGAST
Procedure: After sequencing analysis, the single clone with single sequence was identified by flow cytometry staining, incubated with 1 nM HS-15 Biotin for 30 min, respectively, and washed with 1 mL 1×PBSA for 2 h at room temperature; after flow cytometry analysis, the fluorescence intensity of different clones binding to antigen was compared.

[2] = molecular target: T2, human Siglec-15 (Acro, Cat. No. SG5-H52H3) (human, UniProt Q6ZMC9 20-263); experiment: BLI (Octet RED96e), antibody captured on AHC sensor, 30 nM antigen, 1:1 fit; first assay
T2 construct: Bought reagent used as the analyte in the Octet assay; also called antigen
T2 sequence (looked up): T1 sequence (looked up)
Procedure: (§1) Affinity of Siglec-15 binding protein of the present application to human Siglec-15 (Acro, Cat. No.: SG5-H52H3) was determined using Octet RED96e (Fortebio), both of the antigen and the Siglec-15 binding protein of the present application were diluted with 1×PBST (1×PBS: Sangon, B548117-0500; 0.02% Tween 20: Sigma-aldrich, P1379). The antigen is used at a concentration of 30 nM and the Siglec-15 binding protein of the present application is used at a concentration of 33.3 nM.
(§2) First, a sample was added to a 96-well plate (Greiner bio-one, 655209) in a system of 200 μL/well. Software parameters were then set, the plate temperature was set to 30° C., and the frequency at which the standard kinetic signal was collected was 5.0 Hz. Next, the AHC sensor (Fortébio, Cat. No.: 18-0015) was pre-wetted with 1×PBST for 10 min, then the sample was loaded on the machine for detection, with each cycle containing the following steps: 1) immersing the sample in buffer for 60 s; 2) detecting whether the antigen has non-specific binding to the sensor; 3) regenerating in a 10 mM glycine solution at pH 1.7; 4) immersing in buffer for 60 s; 5) immobilizing the Siglec-15 binding protein of the present application on the sensor for 20 s; 6) immersing the sensor in buffer for 180 s; 7) binding the antigen to the Siglec-15 binding protein of the present application for 180 s; 8) dissociating the antigen with Siglec-15 binding protein of the present application for 10 min; and 9) regenerating the sensor.
(§3) The equilibrium dissociation constant (KD) of the Siglec-15 binding protein of the present application was calculated by determining the binding rate constant (kon) and dissociation rate constant (kdis) of the antigen-Siglec-15 binding protein of the present application in a 1:1 binding manner using Data Analysis 12.0 software fromx Fortebio.

[3] = molecular target: T3, extracellular domain of monkey Siglec-15 on monkey S15ECD-293T cells (monkey); experiment: flow cytometry on monkey S15ECD-293T cells, Alexa 488 secondary antibody
T3 chain: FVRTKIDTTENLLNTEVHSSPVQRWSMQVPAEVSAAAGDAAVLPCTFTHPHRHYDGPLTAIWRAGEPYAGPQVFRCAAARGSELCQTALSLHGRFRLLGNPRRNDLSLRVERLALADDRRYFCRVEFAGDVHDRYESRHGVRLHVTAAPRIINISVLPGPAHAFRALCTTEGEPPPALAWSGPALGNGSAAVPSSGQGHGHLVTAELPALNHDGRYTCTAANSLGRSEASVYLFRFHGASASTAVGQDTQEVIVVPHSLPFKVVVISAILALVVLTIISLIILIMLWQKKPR

[4] = molecular target: T4, full length murine Siglec-15 on murine S15-CT26 cells (murine); experiment: flow cytometry on murine S15-CT26 cells, Alexa 488 secondary antibody
T4 construct: whole, on cells; also called murine Siglec-15 on the surface of a cell

[5] = molecular target: T2, human Siglec-15 (Acro, Cat. No. …); experiment: BLI (Octet RED96e), antibody captured on AHC sensor, 30 nM antigen, 1:1 fit; second assay; design: Response value: unit not given here
Procedure: as §1, §2, §3

[6] = molecular target: T2, human Siglec-15 (Acro, Cat. No. …); experiment: BLI (Octet RED96e), antibody captured on AHC sensor, 30 nM antigen, 1:1 fit; third assay
Procedure: as §1, §2, §3

[7] = molecular target: T5, extracellular domain of human Siglec-15 with PDGFR transmembrane domain on human S15ECD-293T cells (human, UniProt Q6ZMC9 20-263; P09619 513-561); experiment: flow cytometry on human S15ECD-293T cells, Alexa 488 secondary antibody; Ab15 on human S15ECD-293T cells
T5 construct: range 20-263;range 513-561; also called human Siglec-15 on the surface of a cell
Excerpt: (§4) The purified Siglec-15 binding protein of the present application was identified by flow cytometry for its function to bind to human S15ECD-293T cells of the present application. Human S15ECD-293T cells prepared by the methods of the present application can be expanded to 90% confluence in 15 cm cell culture dishes, media were pipetted completely, the cells were washed once with PBS buffer (Thermo Fisher, 10010049), then treated with enzyme-free cell dissociation buffer (Versene solution, Thermo Fisher, 15040066) and harvested. The cells were washed twice with PBS buffer and counted, the desired quantity of cells was removed for centrifugation, the cells were resuspended to 2×10^6 cells/ml with FACS buffer (PBS with 2% FBS). After incubation at room temperature for 15 min, the cell suspension was added to a U-shaped 96-well plate (Corning, 3798) at 50 μL/well. The Siglec-15 binding proteins of the present application were serially diluted in FACS buffer, the dilution was added to the above 96-well plate at 50 μL/well and incubated at 4° C. for 1 h. […] The cells were resuspended in 30 μL/well FACS buffer, and detected and analyzed by flow cytometry intellycite plus (Sartorius). […]

[8] = molecular target: T5, extracellular domain of human Siglec-15 …; experiment: flow cytometry on human S15ECD-293T cells, Alexa 488 secondary antibody; Ab9 on human S15ECD-293T cells
Excerpt: as §4

B1: Ab0 parent sequence displayed on yeast in the form of Fab (Fab, V domains shown)
VH: EVQLLESGGGLVQPGGSLRLSCAASGFTFSSYAMSWVRQAPGKGLEWVSTISGGGGSTYYADSVKGRFTISRDNSKNTLYLQMNSLRAEDTAVYYCAKAIGSSWYSDAFDLWGQGTMVTVSS
VL: DIQMTQSPSSVSASVGDRVTITCRASQDISSWLAWYQQKPGKAPKLLIYVASSLQSGVPSRFSGSGSGTDFTLTISSLQPEDFATYYCQQSYSIPYTFGQGTKLEIK
B1 was tested. Which “Binding MFI” value [1] did it give?
The value was 52.2 MFI.

And the “Binding force (Displaying MFI/Binding MFI) *10000” value [1]?
The value was 219.

B2: Ab0, purified Siglec-15 binding protein in the form of IgG1 (antibody, V domains shown)
VH: B1 VH
VL: DIQMTQSPSSVSASVGDRVTITCRASQDISSWLAWYQQKPGKAPKLLIYVASSLQSGVPSRFSGSGSGTDFTLTISSLQPEDFATYYCQQSYSIPYTFGQGTKLEIKR
With B2 as the binder, how does the Kd [2] read?
The Kd was 0.109 nM.

What about the koff [2] of the same binder?
The koff was 3.24e-05 s⁻¹.

And the kon [2]?
The kon was 298000 M⁻¹ s⁻¹.

B3: Ab2 (clone YC32A6) displayed on yeast in the form of Fab (Fab, V domains shown)
VH: B1 VH with F29S
VL: B1 VL
With B3 as the binder, how does the “Binding MFI” value [1] read?
The value was 133 MFI.

What about the “Binding force (Displaying MFI/Binding MFI) *10000” value [1] of the same binder?
The value was 441.

B4: Ab15, purified Siglec-15 binding protein in the form of IgG1 (antibody, V domains shown)
VH: B1 VH with S52T, G56E
VL: B2 VL with S53Y, L54I, Q55H
notes: Expressed in ExpiCHO cells in the form of IgG1
What does the source list for B4?
EC50 [3]: 0.475 nM; EC50 [4]: 1.83 nM; Kd [5]: 0.073 nM; Response value [5]: 0.361; koff [5]: 3.93e-05 s⁻¹; kon [5]: 538000 M⁻¹ s⁻¹; Kd [6]: 0.0916 nM; koff [6]: 4.35e-05 s⁻¹; kon [6]: 475000 M⁻¹ s⁻¹; EC50 [7]: 0.475 nM

B5: Ab9 (clone YC29B3) displayed on yeast in the form of Fab (Fab, V domains shown)
VH: B1 VH
VL: B1 VL with S31D
Which results are given for B5?
Binding MFI [1]: 131 MFI; Binding force (Displaying MFI/Binding MFI) *10000 [1]: 289

B6: Ab15 (clone YC44F5) displayed on yeast in the form of Fab (Fab, V domains shown)
VH: B1 VH with S52T, G56E
VL: B1 VL with S53Y, L54I, Q55H
B6 was tested. Which “Binding MFI” value [1] did it give?
The value was 105 MFI.

And the “Binding force (Displaying MFI/Binding MFI) *10000” value [1]?
The value was 409.

B7: Ab13 (clone YC45H4) displayed on yeast in the form of Fab (Fab, V domains shown)
VH: B1 VH with S52T, G56E
VL: B1 VL with S53F, L54E, Q55H, S56R
Which “Binding MFI” value [1] does the source give for B7 here?
Its value is 109 MFI.

What about the “Binding force (Displaying MFI/Binding MFI) *10000” value [1] of the same binder?
Its value is 465.

B8: Ab3 (clone YC33B2) displayed on yeast in the form of Fab (Fab, V domains shown)
VH: B1 VH with S52T, G56E
VL: B1 VL
B8 was tested. Which “Binding MFI” value [1] did it give?
The value was 188 MFI.

And the “Binding force (Displaying MFI/Binding MFI) *10000” value [1]?
The value was 658.

B9: Ab9, purified Siglec-15 binding protein in the form of IgG1 (antibody, V domains shown)
VH: B1 VH
VL: B2 VL with S31D
notes: as for B4
B9 was tested. Which EC50 [8] did it give?
Its EC50 is 1.52 nM.

What about the EC50 [3] of the same binder?
Its EC50 is 0.922 nM.

And the EC50 [4]?
Its EC50 is 3.25 nM.

And the Kd [5]?
The Kd was 0.0873 nM.

What about the Response value [5] of the same binder?
The Response value was 0.259.

What about the koff [5] of the same binder?
The koff was 3.88e-05 s⁻¹.

What about the kon [5] of the same binder?
Its kon is 445000 M⁻¹ s⁻¹.

And the Kd [6]?
The Kd was 0.0691 nM.

What about the koff [6] of the same binder?
The koff was 3.59e-05 s⁻¹.

What about the kon [6] of the same binder?
Its kon is 519000 M⁻¹ s⁻¹.

B10: Ab7 (clone YC33D5) displayed on yeast in the form of Fab (Fab, V domains shown)
VH: B1 VH with G56V, S57Y
VL: B1 VL
Which “Binding MFI” value [1] does the source give for B10 here?
Its value is 113 MFI.

And the “Binding force (Displaying MFI/Binding MFI) *10000” value [1]?
Its value is 455.

B11: Ab5 (clone YC33D1) displayed on yeast in the form of Fab (Fab, V domains shown)
VH: B1 VH with S52Y
VL: B1 VL
What does the source list for B11?
Binding MFI [1]: 135 MFI; Binding force (Displaying MFI/Binding MFI) *10000 [1]: 480

B12: Ab6 (clone YC33G4) displayed on yeast in the form of Fab (Fab, V domains shown)
VH: B1 VH with S52W
VL: B1 VL
Which “Binding MFI” value [1] does the source give for B12 here?
The value was 94.2 MFI.

What about the “Binding force (Displaying MFI/Binding MFI) *10000” value [1] of the same binder?
The value was 411.

Source: patent US20240124576A1 (SHANGHAI JEMINCARE PHARMACEUTICAL, published 2024)
